According to publication PMC7291599, “Defining the Threshold IL-2 Signal Required for Induction of Selective Treg Cell Responses Using Engineered IL-2 Muteins” (Frontiers in Immunology, 2020):

T1: recombinant human IL2RB-huFc (human) (UniProt P14784)
T1 sequence (chain, minimally biotinylated): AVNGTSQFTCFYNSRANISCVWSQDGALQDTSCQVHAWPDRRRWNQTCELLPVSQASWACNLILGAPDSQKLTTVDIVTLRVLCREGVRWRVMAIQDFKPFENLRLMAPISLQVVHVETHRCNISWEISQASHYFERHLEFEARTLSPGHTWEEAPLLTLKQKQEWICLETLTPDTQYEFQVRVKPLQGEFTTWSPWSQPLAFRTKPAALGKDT

T2: Recombinant CD25 protein (IL-2R alpha chain) (human, UniProt P01589 22-240)
T2 construct: IL-2 receptor alpha chain (CD25, IL2RA), recombinant, R&D Systems cat #223-2A/CF; source: bought: R&D Systems (cat #223-2A/CF)
T2 sequence (looked up): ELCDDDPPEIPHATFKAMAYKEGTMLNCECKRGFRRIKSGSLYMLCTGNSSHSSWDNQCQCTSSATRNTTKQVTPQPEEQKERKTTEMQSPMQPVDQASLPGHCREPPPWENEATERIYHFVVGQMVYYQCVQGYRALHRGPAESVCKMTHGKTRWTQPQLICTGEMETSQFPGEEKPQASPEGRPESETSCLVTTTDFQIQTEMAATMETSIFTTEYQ


These molecules were tested against T1, recombinant human IL2RB-huFc (human) (assay: not given). Conditions: not given.

| Molecule | pSTAT5 MFI EC50 in CD25hi Foxp3+ Treg cells, human whole blood assay (AVG EC50, n = 3 donors) [nM] |
| --- | --- |
| IL-2 mutein D20A H16R E61Q (Fc fusion) (from UniProt P60568 21-153) | 20.7 |
| IL-2 mutein D20G (Fc fusion) (from UniProt P60568 21-153) | 6.24 |
| IL-2 mutein D20W (Fc fusion) (from UniProt P60568 21-153) | 20.9 |
| IL-2 mutein H16E (Fc fusion) (from UniProt P60568 21-153) | 0.067 |
| IL-2 mutein H16E E61Q (Fc fusion) (from UniProt P60568 21-153) | 2.34 |
| IL-2 mutein H16E M104L (Fc fusion) (from UniProt P60568 21-153) | 0.062 |

Continued, values first:

| pSTAT5 MFI EC50 in CD25hi Foxp3+ Treg cells, human whole blood assay (AVG EC50, n = 3 donors) [nM] | Molecule |
| --- | --- |
| 1.21 | IL-2 mutein D20A (Fc fusion) (from UniProt P60568 21-153) |
| 1.67 | IL-2 mutein D20A M104T (Fc fusion) (from UniProt P60568 21-153) |
| 0.418 | IL-2 mutein N88D (Fc fusion) (from UniProt P60568 21-153) |
| 23.3 | IL-2 mutein N88K (Fc fusion) (from UniProt P60568 21-153) |
| 4.76 | IL-2 mutein V91K D20A M104V (Fc fusion) (from UniProt P60568 21-153) |
| 0.089 | IL-2 mutein V91S (Fc fusion) (from UniProt P60568 21-153) |

The molecules below were run against T2, Recombinant CD25 protein (IL-2R alpha …) (assay: SPR; CD25 amine-coupled (EDC/NHS) to a CM5 chip, about 90 RU, Biacore T100; IL-2 Fc fusions as analytes, 3-fold series from 500 to 6.2 nM in PBS + 0.05% Tween-20, 75 uL/min; steady state RU levels fitted globally to a 4-parameter logistic function to derive EC50). Conditions: both partners purified.

| Molecule | EC50 [nM] |
| --- | --- |
| IL-2 mutein D20A H16R E61Q (Fc fusion) (Fc fusion, human, UniProt P60568 21-153, looked up, human interleukin-2 (IL-2), fused to the Fc of human IgG1 (N297G); H16 is H36 in P60568); Homodimeric Fc fusion, bivalent for IL-2; source: CHO K1, stably integrated, purified from culture media (MabSelect SuRe, desalting, Superdex 200 SEC)) APTSSSTKKTQLQLERLLLALQMILNGINNYKNPKLTRMLTFKFYMPKKATELKHLQCLEQELKPLEEVLNLAQSKNFHLRPRDLISNINVIVLELKGSETTFMCEYADETATIVEFLNRWITFCQSIISTLT | 157 |
| IL-2 mutein V91K D20A M104V (Fc fusion) (Fc fusion, human, UniProt P60568 21-153, looked up, human interleukin-2 (IL-2), fused to the Fc of human IgG1 (N297G); H16 is H36 in P60568); Homodimeric Fc fusion, bivalent for IL-2; source: CHO K1, stably integrated, purified from culture media (MabSelect SuRe, desalting, Superdex 200 SEC)) APTSSSTKKTQLQLEHLLLALQMILNGINNYKNPKLTRMLTFKFYMPKKATELKHLQCLEEELKPLEEVLNLAQSKNFHLRPRDLISNINKIVLELKGSETTFVCEYADETATIVEFLNRWITFCQSIISTLT | 6 |
